The record followed here is the supplement of paper PMC9112550, “Optimization of the antimicrobial peptide Bac7 by deep mutational scanning” (BMC Biology, 2022).

This data set deals with Escherichia coli TOP10. Nature of the data set: shrunken log2 fold change of peptide-encoding DNA abundance (4.5 h post-induction vs induction); higher = less antimicrobial activity (less host growth inhibition). The settings on record: time post-induction: 4.5 h; library: site-saturation at positions 5, 18, 19, 20.
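Also: peptides expressed intracellularly from a pBAD plasmid library in pooled LB shake-flask culture, induced with 0.3% L-arabinose, DNA abundance read by NGS, three biological replicates, DESeq2 with apeglm shrinkage.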

Take RRIRSRPPRLPRPRPRPGPNPRP: the “shrunken log2 fold change” value was -0.0665.

Turning to RRIRPRPPRLPRPRPRPHPYPRP, the “shrunken log2 fold change” value was -0.576.

Turning to RRIRSRPPRLPRPRPRPEYIPRP, the “shrunken log2 fold change” value was -0.0603.

Consider RRIRYRPPRLPRPRPRPKYYPRP, for which the “shrunken log2 fold change” value is -1.43.

In the case of RRIRPRPPRLPRPRPRPARRPRP, the “shrunken log2 fold change” value amounted to 0.374.

RRIRQRPPRLPRPRPRPCMWPRP: the “shrunken log2 fold change” value is -0.148.

RRIRHRPPRLPRPRPRPIMTPRP: the “shrunken log2 fold change” value is -0.895.

On to RRIRMRPPRLPRPRPRPKWGPRP, for which the “shrunken log2 fold change” value stood at 0.729.

Take RRIRHRPPRLPRPRPRPMFDPRP: the “shrunken log2 fold change” value worked out at 0.108.

For the sequence RRIRDRPPRLPRPRPRPAPFPRP, the “shrunken log2 fold change” value was determined as 0.196.

On to RRIRSRPPRLPRPRPRPEIYPRP, for which the “shrunken log2 fold change” value was -0.295.

Turning to RRIRGRPPRLPRPRPRPFFAPRP, the “shrunken log2 fold change” value is 0.747.

For RRIRFRPPRLPRPRPRPWSGPRP, the “shrunken log2 fold change” value was -0.221.

On to RRIRIRPPRLPRPRPRPGSLPRP, for which the “shrunken log2 fold change” value is -0.475.

For the sequence RRIRGRPPRLPRPRPRPNEAPRP, the “shrunken log2 fold change” value turned out to be 1.22.

With RRIRDRPPRLPRPRPRPVHLPRP, the “shrunken log2 fold change” value is -0.23.

RRIRRRPPRLPRPRPRPSVKPRP: the “shrunken log2 fold change” value stood at 0.155.

Take RRIRQRPPRLPRPRPRPPPLPRP: the “shrunken log2 fold change” value amounted to 0.977.

For RRIRERPPRLPRPRPRPMKPPRP, the “shrunken log2 fold change” value is -0.0018.

In the case of RRIRDRPPRLPRPRPRPSGSPRP, the “shrunken log2 fold change” value is -0.00469.

For RRIRFRPPRLPRPRPRPGEYPRP, the “shrunken log2 fold change” value is -0.114.

Turning to RRIRIRPPRLPRPRPRPDAAPRP, the “shrunken log2 fold change” value turned out to be 0.432.

Regarding RRIRVRPPRLPRPRPRPRTEPRP, the “shrunken log2 fold change” value was determined as 0.165.

For RRIRKRPPRLPRPRPRPHAQPRP, the “shrunken log2 fold change” value came out at 0.133.

Turning to RRIRCRPPRLPRPRPRPSNIPRP, the “shrunken log2 fold change” value was -0.319.

Consider RRIRLRPPRLPRPRPRPCVAPRP, for which the “shrunken log2 fold change” value worked out at 0.238.

For RRIRVRPPRLPRPRPRPLLIPRP, the “shrunken log2 fold change” value is -0.304.

RRIRKRPPRLPRPRPRPPLYPRP: the “shrunken log2 fold change” value amounted to 0.948.

For the sequence RRIRHRPPRLPRPRPRPIIWPRP, the “shrunken log2 fold change” value was -0.145.

In the case of RRIRARPPRLPRPRPRPMCPPRP, the “shrunken log2 fold change” value came to 0.0408.

In the case of RRIRWRPPRLPRPRPRPLKMPRP, the “shrunken log2 fold change” value was 0.234.

As for RRIRYRPPRLPRPRPRPQLVPRP, the “shrunken log2 fold change” value was -0.045.

RRIRCRPPRLPRPRPRPGFYPRP: the “shrunken log2 fold change” value was -0.449.

As for RRIRNRPPRLPRPRPRPSQPPRP, the “shrunken log2 fold change” value is -0.0682.

Take RRIRWRPPRLPRPRPRPEHRPRP: the “shrunken log2 fold change” value is 0.231.

Take RRIRHRPPRLPRPRPRPWSVPRP: the “shrunken log2 fold change” value is -0.125.

Consider RRIRCRPPRLPRPRPRPIHPPRP, for which the “shrunken log2 fold change” value was 0.00281.

For RRIRERPPRLPRPRPRPKKVPRP, the “shrunken log2 fold change” value was -0.178.

For RRIRHRPPRLPRPRPRPVRPPRP, the “shrunken log2 fold change” value was 0.365.

On to RRIRTRPPRLPRPRPRPMHAPRP, for which the “shrunken log2 fold change” value was -0.112.

Consider RRIRDRPPRLPRPRPRPFFTPRP, for which the “shrunken log2 fold change” value was -0.024.

As to RRIRVRPPRLPRPRPRPPLVPRP, the “shrunken log2 fold change” value is 0.227.

Consider RRIRKRPPRLPRPRPRPPYVPRP, for which the “shrunken log2 fold change” value stood at 0.0388.

In the case of RRIRSRPPRLPRPRPRPPYWPRP, the “shrunken log2 fold change” value worked out at 0.3.

With RRIRLRPPRLPRPRPRPMECPRP, the “shrunken log2 fold change” value was -0.489.

As to RRIRHRPPRLPRPRPRPMVAPRP, the “shrunken log2 fold change” value worked out at 0.195.

RRIRIRPPRLPRPRPRPFIQPRP: the “shrunken log2 fold change” value is -0.551.

On to RRIRTRPPRLPRPRPRPRMNPRP, for which the “shrunken log2 fold change” value was -0.133.

With RRIRIRPPRLPRPRPRPCVRPRP, the “shrunken log2 fold change” value was -0.208.

In the case of RRIRWRPPRLPRPRPRPCKVPRP, the “shrunken log2 fold change” value is -0.0816.

On to RRIRARPPRLPRPRPRPLKGPRP, for which the “shrunken log2 fold change” value is 0.052.

As for RRIRDRPPRLPRPRPRPMFAPRP, the “shrunken log2 fold change” value came out at 0.199.

For RRIRHRPPRLPRPRPRPRSQPRP, the “shrunken log2 fold change” value worked out at 0.136.

With RRIRLRPPRLPRPRPRPKVHPRP, the “shrunken log2 fold change” value is -0.106.

Consider RRIRVRPPRLPRPRPRPYGQPRP, for which the “shrunken log2 fold change” value was -0.0728.

In the case of RRIRLRPPRLPRPRPRPHPLPRP, the “shrunken log2 fold change” value is -0.152.

RRIRIRPPRLPRPRPRPQLEPRP: the “shrunken log2 fold change” value was 0.000806.

On to RRIRSRPPRLPRPRPRPMDIPRP, for which the “shrunken log2 fold change” value was -0.00112.

On to RRIRGRPPRLPRPRPRPYRMPRP, for which the “shrunken log2 fold change” value was -0.245.

As to RRIRFRPPRLPRPRPRPRLSPRP, the “shrunken log2 fold change” value was -0.194.

For the sequence RRIRLRPPRLPRPRPRPANFPRP, the “shrunken log2 fold change” value came to 0.0302.

As to RRIRYRPPRLPRPRPRPPVEPRP, the “shrunken log2 fold change” value was -0.108.

Turning to RRIRTRPPRLPRPRPRPQHRPRP, the “shrunken log2 fold change” value is -0.0713.

Consider RRIRRRPPRLPRPRPRPACQPRP, for which the “shrunken log2 fold change” value is 0.835.

As to RRIRVRPPRLPRPRPRPEKTPRP, the “shrunken log2 fold change” value stood at 0.0303.

Consider RRIRSRPPRLPRPRPRPIMQPRP, for which the “shrunken log2 fold change” value was -0.216.

Take RRIRVRPPRLPRPRPRPCICPRP: the “shrunken log2 fold change” value is -0.338.

As to RRIRWRPPRLPRPRPRPFCQPRP, the “shrunken log2 fold change” value is -0.0441.

As for RRIRFRPPRLPRPRPRPKINPRP, the “shrunken log2 fold change” value is -0.385.

As to RRIRHRPPRLPRPRPRPPADPRP, the “shrunken log2 fold change” value is 0.492.

For the sequence RRIRRRPPRLPRPRPRPANVPRP, the “shrunken log2 fold change” value is -0.15.

Regarding RRIRSRPPRLPRPRPRPYFEPRP, the “shrunken log2 fold change” value is -0.359.

Take RRIRLRPPRLPRPRPRPRSAPRP: the “shrunken log2 fold change” value came to 0.29.

Take RRIRCRPPRLPRPRPRPKWPPRP: the “shrunken log2 fold change” value was -0.0352.

With RRIRTRPPRLPRPRPRPTDLPRP, the “shrunken log2 fold change” value was -0.0718.

As for RRIRERPPRLPRPRPRPGCQPRP, the “shrunken log2 fold change” value turned out to be 0.0111.

On to RRIRQRPPRLPRPRPRPLKRPRP, for which the “shrunken log2 fold change” value was -0.0432.

For the sequence RRIRHRPPRLPRPRPRPNRLPRP, the “shrunken log2 fold change” value was 0.0234.

As for RRIRDRPPRLPRPRPRPGHRPRP, the “shrunken log2 fold change” value is -0.0741.

As for RRIRARPPRLPRPRPRPKPEPRP, the “shrunken log2 fold change” value was determined as 0.223.

With RRIRHRPPRLPRPRPRPHTCPRP, the “shrunken log2 fold change” value was -0.141.

For the sequence RRIRGRPPRLPRPRPRPCKLPRP, the “shrunken log2 fold change” value was -0.378.

As to RRIRGRPPRLPRPRPRPEQLPRP, the “shrunken log2 fold change” value came to 0.443.

Take RRIRMRPPRLPRPRPRPWMHPRP: the “shrunken log2 fold change” value is -0.128.

In the case of RRIRIRPPRLPRPRPRPQVPPRP, the “shrunken log2 fold change” value is 0.00863.

For the sequence RRIRYRPPRLPRPRPRPNAIPRP, the “shrunken log2 fold change” value was -0.0737.

With RRIRTRPPRLPRPRPRPATYPRP, the “shrunken log2 fold change” value is -0.169.

As for RRIRCRPPRLPRPRPRPQTWPRP, the “shrunken log2 fold change” value came to 0.295.

RRIRGRPPRLPRPRPRPYPWPRP: the “shrunken log2 fold change” value came to 0.155.

With RRIRIRPPRLPRPRPRPEMCPRP, the “shrunken log2 fold change” value came to 0.0321.

As to RRIRVRPPRLPRPRPRPVREPRP, the “shrunken log2 fold change” value came out at 0.3.

For RRIRTRPPRLPRPRPRPKIQPRP, the “shrunken log2 fold change” value was -0.0936.

In the case of RRIRTRPPRLPRPRPRPPRCPRP, the “shrunken log2 fold change” value stood at 0.391.

Turning to RRIRFRPPRLPRPRPRPPFEPRP, the “shrunken log2 fold change” value turned out to be 0.347.

As for RRIRTRPPRLPRPRPRPFYCPRP, the “shrunken log2 fold change” value is -0.505.

With RRIRWRPPRLPRPRPRPRDFPRP, the “shrunken log2 fold change” value is -0.031.

With RRIRFRPPRLPRPRPRPHCLPRP, the “shrunken log2 fold change” value is -0.377.

Regarding RRIRIRPPRLPRPRPRPWLLPRP, the “shrunken log2 fold change” value is -0.0948.

Regarding RRIRGRPPRLPRPRPRPLRTPRP, the “shrunken log2 fold change” value was 1.69.

As for RRIRSRPPRLPRPRPRPSKCPRP, the “shrunken log2 fold change” value is -0.0382.

On to RRIRDRPPRLPRPRPRPNDHPRP, for which the “shrunken log2 fold change” value was -0.53.

On to RRIRMRPPRLPRPRPRPCGTPRP, for which the “shrunken log2 fold change” value worked out at 1.97.

RRIRIRPPRLPRPRPRPWLTPRP: the “shrunken log2 fold change” value was -0.096.

For the sequence RRIRDRPPRLPRPRPRPPFMPRP, the “shrunken log2 fold change” value was found to be 0.042.

Consider RRIRWRPPRLPRPRPRPNGAPRP, for which the “shrunken log2 fold change” value stood at 0.161.

With RRIRERPPRLPRPRPRPGIIPRP, the “shrunken log2 fold change” value is -0.0249.

Regarding RRIRGRPPRLPRPRPRPTADPRP, the “shrunken log2 fold change” value turned out to be 2.65.

For the sequence RRIRIRPPRLPRPRPRPECIPRP, the “shrunken log2 fold change” value is -0.0632.

As for RRIRRRPPRLPRPRPRPPKSPRP, the “shrunken log2 fold change” value amounted to 0.37.

On to RRIRRRPPRLPRPRPRPYRGPRP, for which the “shrunken log2 fold change” value is -0.191.

For the sequence RRIRSRPPRLPRPRPRPTLTPRP, the “shrunken log2 fold change” value came to 0.206.

Regarding RRIRDRPPRLPRPRPRPCWTPRP, the “shrunken log2 fold change” value came out at 0.122.

Take RRIRMRPPRLPRPRPRPQMPPRP: the “shrunken log2 fold change” value was determined as 0.0529.

As to RRIRIRPPRLPRPRPRPRKCPRP, the “shrunken log2 fold change” value was -0.599.

Turning to RRIRLRPPRLPRPRPRPYHWPRP, the “shrunken log2 fold change” value is -0.188.

RRIRTRPPRLPRPRPRPWAFPRP: the “shrunken log2 fold change” value is -0.185.

With RRIRCRPPRLPRPRPRPSEPPRP, the “shrunken log2 fold change” value was -0.184.

On to RRIRNRPPRLPRPRPRPMTCPRP, for which the “shrunken log2 fold change” value is -0.0075.

Take RRIRSRPPRLPRPRPRPVLEPRP: the “shrunken log2 fold change” value was determined as 0.0953.

RRIRERPPRLPRPRPRPIIQPRP: the “shrunken log2 fold change” value was -0.386.

RRIRTRPPRLPRPRPRPHPSPRP: the “shrunken log2 fold change” value is 0.00449.

Consider RRIRIRPPRLPRPRPRPKLWPRP, for which the “shrunken log2 fold change” value was -0.182.

In the case of RRIRNRPPRLPRPRPRPNFQPRP, the “shrunken log2 fold change” value is -0.0807.

With RRIRTRPPRLPRPRPRPCWLPRP, the “shrunken log2 fold change” value is -0.0724.

On to RRIRNRPPRLPRPRPRPSYFPRP, for which the “shrunken log2 fold change” value is -0.699.
